Assay results: patent publication US20210115424A1 (University of California, published 2021)
Residue numbers refer to the chain shown, from its start. In names and notes the source's numbering stands.

Key:
[1] = molecular target: T1, SpaA derived sorting signal peptide KNAGFELPLTGGSGRI
T1 chain: KNAGFELPLTGGSGRI

[2] = molecular target: ^NSpaA, N-terminal domain of SpaA (residues 30-194) containing the pilin motif with K190
[3] = molecular target: the molecule itself; test: X-ray crystallography (homodimer in the crystal)
[4] = molecular target: sorting signal peptide (quantitative HPLC assay of Table 2)
[5] = molecular target: T2, LPATG peptide KNAGFELPATGGSGRI
T2 chain: KNAGFELPATGGSGRI

[6] = molecular target: ^CSpaA, C-terminal domain of SpaA (residues 350-500) containing the LPLTG sorting signal
[7] = molecular target: T3, pilin motif peptide DGWLQDVHVYPKHQALS
T3 chain: DGWLQDVHVYPKHQALS

[8] = molecular target: SpaA, soluble form (residues 30-500) lacking the N-terminal signal peptide and C-terminal membrane anchor domain

B1: SrtA^2M N228A variant (protein)
chain: NNARQARVAQSYENSYEVDSPAVRDSVLEAARQYNTSVVGFPILGPGLNRASKNSGPYLDYLQQLNPQRAERPVIASISIPTIDAHLPIYHGTDTATLEHGLGHLYGSALPVGGTGTHPVITGHSGLANATLFDNLEDVKEHDPIYITVQGETLKYEVDAINVVLPEDTKLLAPDPNKDQITLITCTPYAVASHRLLVRAHRVDLDPNDPNLTQTGTKIWQ
B1 was tested, and the “hydrolysis of SpaApep (HPLC-based assay, SrtA^2M set as 100%)” value [1] was “none of the mutants exhibited any significant defect in cleaving the LPXTG (SEQ ID NO. 5) motif” and the “transpeptidation in vitro (ligation of ^NSpaA and ^CSpaA, SDS-PAGE)” value (“transpeptidation in vitro” below) [2] was “defective in transpeptidation in vitro, as no isopeptide linked SpaA-SpaA product was produced even after 48 hours”.

B2: SrtA^2M Y225A variant (protein)
chain: B1 chain with Y189A, A192N
For B2, the “hydrolysis of SpaApep (HPLC-based assay, SrtA^2M set as 100%)” value [1] was “none of the mutants exhibited any significant defect in cleaving the LPXTG (SEQ ID NO. 5) motif” and the “transpeptidation in vitro” value [2] was “had impaired transpeptidation activity as well, but to a lesser extent than the S229A and N228A mutants”.

B3: Corynebacterium diphtheriae pilus-specific sortase SrtA, soluble catalytic domain fragment (residues 37-257), SrtA^WT (enzyme)
chain: B1 chain with G45D, G47W, A192N
notes: The His6-SUMO or His/TEV tag was removed after purification; also called CdSrtA^WT; Cd-SrtA
With B3 the Vmax of hydrolysis kinetics (HPLC-based assay, SpaApep cleavage) [1] was 5.5 µM/h and the binding result [3] was “binds”.

B4: SrtA^2M (residues 37-257 of CdSrtA with D81G/W83G lid mutations) (protein)
chain: B1 chain with A192N
B4 was tested, and the Vmax of hydrolysis kinetics (HPLC-based assay, SpaApep cleavage) [1] was 6.3 µM/h.

B5: CdSrtA^3M (CdSrtA D81G/W83G/N85A triple mutant) (protein)
chain: B1 chain with N49A, A192N
In the case of B5, the Km (M) × 10^-4 [4] is reported as 8e-05 M, the Vmax (s^-1) × 10^-9 [4] is reported as 1.4e-09 s⁻¹ and the kcat (s^-1) × 10^-5 [4] is reported as 5.7e-05 s⁻¹. For the same protein, the kcat/kM [4] was 0.7 M⁻¹ s⁻¹, the “hydrolysis of LPATG peptide (HPLC)” value [5] was “CdSrtA^3M is unable to process any significant amount of peptide” and the “HPLC-based sorting signal cleavage assay” value [1] was “the CdSrtA^3M triple mutant exhibits the highest level of activity in a HPLC-based sorting signal cleavage assay”. The “labeling of ^NSpaA with the sorting signal peptide (MALDI-MS)” value [2] was >95% of ^NSpaA is labeled with the peptide, the “cross-linked ^NSpaAx^CSpaA product after 24 hour incubation, relative to CdSrtA^2M (gel densitometry)” value [6] was 35% more product than CdSrtA^2M and the “cross-linked ^NSpaAx^CSpaA product after 24 hour incubation, relative to CdSrtA^WT (gel densitometry)” value [6] was 10.6-fold more cross-linked ^NSpaAx^CSpaA product than CdSrtA^WT. The “ligation of the pilin motif peptide to ^CSpaA or to the sorting signal peptide (MALDI-MS)” value [7] was “In both instances, no detectable product was observed”.

B6: SrtA^2M S229A variant (protein)
chain: B1 chain with A192N, S193A
With B6 the “hydrolysis of SpaApep (HPLC-based assay, SrtA^2M set as 100%)” value [1] was “none of the mutants exhibited any significant defect in cleaving the LPXTG (SEQ ID NO. 5) motif” and the “transpeptidation in vitro” value [2] was “defective in transpeptidation in vitro, as no isopeptide linked SpaA-SpaA product was produced even after 48 hours”.

B7: SrtA^2M N165A variant (protein)
chain: B1 chain with N129A, A192N
In the case of B7, the “hydrolysis of SpaApep (HPLC-based assay, SrtA^2M set as 100%)” value [1] is reported as “none of the mutants exhibited any significant defect in cleaving the LPXTG (SEQ ID NO. 5) motif” and the “transpeptidation in vitro” value [2] is reported as “this mutant retained near wild-type activity”.

B8: Staphylococcus aureus sortase A, wild type (protein)
chain: QAKPQIPKDKSKVAGYIEIPDADIKEPVYPGPATPEQLNRGVSFAEENESLDDQNISIAGHTFIDRPNYQFTNLKAAKKGSMVYFKVGNETRKYKMTSIRDVKPTDVGVLDEQKGKDKQLTLITCDDYNEKTGVWEKRKIFVATEVK
B8 was tested, and the “hydrolysis of LPATG peptide (HPLC)” value [5] was “SaSrtA robustly hydrolyzes the LPATG (SEQ ID NO. 5) peptide, as expected”.

B9: Staphylococcus aureus sortase A improved variant 4M (P94S/D160N/D165A/K196T) (protein)
chain: B8 chain with P35S, D101N, D106A, K137T
In the case of B9, the “hydrolysis of LPATG peptide (HPLC)” value [5] is reported as “almost entirely hydrolyzes the full length peptide after 24 hrs”.

B10: ΔSrtA^2M (SrtA^2M with the H1 helix, residues 37-54, removed) (protein)
chain: DSPAVRDSVLEAARQYNTSVVGFPILGPGLNRASKNSGPYLDYLQQLNPQRAERPVIASISIPTIDAHLPIYHGTDTATLEHGLGHLYGSALPVGGTGTHPVITGHSGLANATLFDNLEDVKEHDPIYITVQGETLKYEVDAINVVLPEDTKLLAPDPNKDQITLITCTPYAVNSHRLLVRAHRVDLDPNDPNLTQTGTKIWQ
For B10, the “in vitro SpaA pilus polymerization (SDS-PAGE)” value [8] was “the removal of the H1 helix in the SrtA^2M enzyme also abrogates pilus polymerization” and the Vmax of hydrolysis kinetics (HPLC-based assay, SpaApep cleavage) [1] was 6.3 µM/h.

B11: CdSrtA^Δ (CdSrtA active truncated variant with nine lid residues … deleted) (protein)
chain: NNARQARVAQSYENSYEVDSPAVRDSVLEAARQYNTSVVGFPSKNSGPYLDYLQQLNPQRAERPVIASISIPTIDAHLPIYHGTDTATLEHGLGHLYGSALPVGGTGTHPVITGHSGLANATLFDNLEDVKEHDPIYITVQGETLKYEVDAINVVLPEDTKLLAPDPNKDQITLITCTPYAVNSHRLLVRAHRVDLDPNDPNLTQTGTKIWQ
For B11, the Km (M) × 10^-4 [4] was 0.00016 M, the Vmax (s^-1) × 10^-9 [4] was 1e-08 s⁻¹ and the kcat (s^-1) × 10^-5 [4] was 0.0004 s⁻¹. The kcat/kM [4] was 2.5 M⁻¹ s⁻¹.
